# From the nanobody polyreactivity screen of Harvey et al. (2022)
# Assay: yeast display, Sf9 membrane polyspecificity reagent, FACS + sequencing; frameworks hold sequencing errors
# Summary of the method: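 A synthetic nanobody library was expressed on Saccharomyces cerevisiae BJ5465 by galactose induction for 36–48 hours. The library was stained for 1 hour at 4 °C with 10% biotinylated, detergent-solubilized Sf9 membrane reagent and enriched with streptavidin microbeads before FACS. Low and high (top ~1%) gates were set on anti-HA fluorescence for expression and streptavidin fluorescence for reagent binding, and each polyreactivity label reflects the gate of origin.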
row,Sequence,polyreactivity (PSR sort gate)
1,QVQLVESGGGLVQAGGSLRLSCAASGSTFTINAKGWYRQATGKETELVAAITDSAGNTYYADSVKGRFTISRDNAKNTVYLQMNSLKPEDTAVYYCAAAWPSTGLLYVLGYSGYGYWGQGTQVTVSS,low polyreactivity
2,QVQLVESGGGLVQAGGSLRLSCAAYGRTITYYAMGGYRQSPGKERELVAAIPWSGGSTYYADSVKGRFTISRDNAKNTVYLQMNSLKPEDTAVYYCSADSYIYSVNYWGQGTQLTVSS,low polyreactivity
3,QVQLVESGGGLVQAGGSLRLSCAASGSTFIGYAMGWYRQAPGKERELVASISWGGGSTYYADSVKGRFTISRDNAKNTVYLQMNSLKPEDTAVYYCATDGRTYIDFYWGQGTQVTVSS,low polyreactivity
4,QVLLQESGGGLVQAGGSLRVSCAASGTISTDIRMGSYRLAPGKEREFVASIDGCSTTYYADSVKGRFTISRDNAKNTVYLQMNSLKPEDTAMYYCAAREATEYYLYYWGQGTQVTVSS,low polyreactivity
5,QVQLVESGGGLVQAGGSLRLSCAASGFIFGGYPMGWYRQAPGKERELVAAITIRGGSTSYADSVKGRFTISRDIAMNTVYLQMNSLKPEDSAVYYCNRQSRNAGGYYWGQGTQVTVSS,low polyreactivity
6,QVQLVESGGGLVQAGGSLRLSCAASGRIFRSNAMGWYRQAPGKERELVATITRSGGSTYYADSVKGRFTISRDNAKNTVYLQMNSLKPEDTAVYYCNAVFGSAYRAQRIMGYWGQGTQVTVSS,high polyreactivity
7,QVQLVESGGGLVQAGGSLRLSCPATGFTFSVYVMAWYRLAPGKERELVAAISSGGDTTYADSVKGRFTISRDNAKNTVYLQMNSLKPEDTAVYYCAAYRVILYYLYDYWGQGTQVTVSS,low polyreactivity
8,QVQLVESGGGLLQAGGSLLLSCAASGSIFDTNAMGWYRQAPGTERELVAAISWSDTSTYADSVKGRFTISRDNAKNTVYLQMNSLKPEDTAVYYCATDTRSQAYYYWGQGTQVNVSS,low polyreactivity
9,QVQLVESGGGLDQAGGSLRLSCAASGRIFGFYAMGWYRQAPGKERELVAAITINTGSTSYADSVKGRFTISRDNAKNTVYFQMNSLKPEDTAVYYCATDAAAPKYDYWGQGTQVTVSS,low polyreactivity
10,QVQLVESGGGLVQAGGSLRLSCAASGIIFASYPMGWYRQAPGKESELVADINVTGGTTYYADTVKGRFTISRDNAKNTVYLQMNSLKPEDTAVYYCAARQSIFYSWTGVEYYYWGQGTQVTVSS,low polyreactivity
11,QDQLVESGGGLVQAGGSLRLSCAASGLTFDWYTMGWYRQAPGKERELVATINSGGSTDYADSVKGRFTISRDNAKNTVYLQMNSLKPEDTAVYYCNAEYGYSGVGDDYWGQGTQVTVSS,low polyreactivity
12,QVQLVESGGGLVQAGGSLRLSCAASGRIFWGYAMGWYRQAPGKEREVVAAISWSGGSTYYADSVKGRFTISRDNAKNTVYLQMNSLKPEDTAVYYCAALRFQSYNYWGQGTQVTVSS,high polyreactivity
13,QVQLVESGGGLVQAGGSLRLSCAASGRITGIYAMGWYRPAPGKERELVAAITWRGGRTCYADSVKGRFTISRDNAKNSVYLQMNSLKPEDTAVYYCAAELQGAYYFAYYYWGQGTQVTVSS,high polyreactivity
14,QVQLVESGGGLVQAGGSLRLSCASSGNIFDIYAMGWYRQAPGKERELVAAITSSGGSTYYADSVKGRCTISRDNAKNTVYLQMNSLKPEDTAVYYCNAVSLVQKGDYWGQGTQVTVSS,high polyreactivity
15,QVQLVESGGGLVQAGGSLRLSCAASGFTFVGYAMGWYRQEPGKERELVAAISTRGGSTYYADSVKGRFTISRDNAKNTDYLQMNSLKPEDTAVYYCNARGAKRGLLSYYWGQGTQVTVSS,high polyreactivity
16,QVQLVESGGGLVQAGGSLRLSCADSGSIFVWNDMGWYRQAPGKEREFVAAITSRDGSTYYADSVKGRFTISRDTAKNTVYLQMTSLKPEDTAVYYCAARLRVTGFYSRTRYYWGQGTQVTVAS,low polyreactivity
17,QVQLVESGGGLVQAGGSLRLSCAASGSTFVPNAMGWYRQAPGKERELVAAISSVGSTNYADSVKGRFTISRDNAKNTVYLQMNSLKPEDTAVYYCAVRYPWRYFKYGYWGQGSQVTVSS,low polyreactivity
18,QVQLVESGGGLVQAGGSLRLRCAASGRTFCWYAMGWYRQAPGKERELVADITYSGGNTYYADSVKGRFTITRDNAKNTVYLQMNSLKPEDTAVYYCAAERKNKYDYWGQGTQVTVTS,high polyreactivity
19,QVQLVESGGGLVQAGGSLRLSCAASGSTFQRNAMGWYRQAPGKERELVAAITSRGGSTYYADSVKGRFTISRDNAKNTVSLQMNSLNPEDTGVYYCAALTWARSRNGTYDYWGPGTQVTVSS,high polyreactivity
20,QVQLVESGGGLVQAGGSLRLSCASSGRIFWTYAMGWYRQAPGKERELVAAITSGGSTYYADSVKGRFTISRDKAKNTVYLQMNSLKPEDTAVLYCAATSYYYNFLEHDYWGQGTQVTVSS,high polyreactivity
21,QVQLVESGGGLVQAGGSLRLSCAASGSTFSNAMGWYREAPGKERELVAAITNRGGSTYYADSVKGRFTISRDNAKNTVYLQMNSLKPEDTAVYYCAAAGIPESWYQERDYWGQGTQVTVSS,low polyreactivity

row,Sequence,polyreactivity (PSR sort gate)
1,QVQLVESGGGLVQAGGSLRLSCAASGRTFVTNTMGWYRQAPGKEREFVAAITWNGGGTYYADSVKGRFTISRDNAKNTVYLQMNSLKPEDTAVYYCAARGRTDSYWRFYHWGQGTQVTVSS,high polyreactivity
2,QVQLVESGGGLVQARGSLRLSCAASGRIFNTYAMGRYIQAPGKERELVAAITSSGGSTYYADSVKGRFTISRDNAKNTVYFQMNSLKPEDTAVYYCNAGSLHRRYYYEGDYWGQGTQVTVSS,high polyreactivity
3,QVHLVESGGGLVQAGGSLRLSCAASGRTYARYTMAWYRQAPGKEREMVASITRGGSTYFADSVKGRFTISRDNAKNTVYLQMNSLKPGDTAVYYCAARFPQHNYWAMDYWGLGTQVTVSS,high polyreactivity
4,QVQLQESGGGLVQAGGSLRLSCAASGTISDSGLKGWYRQAPGIERELVAGISSGGITNYADSVKGRFTISRDNAQNTVYLQMNSLKPVDTAVYWGQGTQLTVSS,low polyreactivity
5,QVQLVESGGCLVQAGGSLRLSCAASGRTFRVNAMGWYRQAPGKEWELVAAITWRGGSTYYADSVKGRFTISRDIAKYTVYLQMNSLKPEDTAVYYCAARYSSSSRRQKSDYWGQGTQVTVSS,high polyreactivity
6,QVQLVESGGGLVQAGGSLRLSCAASVSTFGGYAMGWYRQAPGKERELDAAITYSGGSTYYADSVKGRFTISRDNAKNTVYLQMNSLKPEDTAVYYCNADDDDALPWWWPYVLDVDYWGQGTQVTVSS,low polyreactivity
7,QVQLVESGGGLVQAGGSLRLSCAASGSIFENYAMGWYRQAPGKERELVAAISSSGDSTYYADSVKGRFTISRDNAKNTVYLQMNSLKPEDTAVYYCAAEISLSRSDRIESYDYWGQGTQVTVSS,low polyreactivity
8,QVQLVESGGGLVQAGGSLRLSCAASGSTFYKYTMGWYRQAPGKERELVAAISGSGTTTYYADSVKGRFTISRDNAKNTVYLQMNSLKPEDTAVYYCAARRFSPGSSGHGYWGQGTQVTVSS,high polyreactivity
9,QVQLVESGGGLVQAGGSLRLSCAASGFTFYLYAMGWYRQAPGKERELVAAITYSAGSTYYADSVKGRFTISRDNAKNTVYLQMNSLKPEDTAVYYCAKRGHYRAWGGGGYWGQGTQVTVSS,low polyreactivity
10,QVQLVESGGGLVQAGGSLRLSCAASGRTFRAYAMGWYRQAPGKERELVAAISGTGDRTYYADSVKGRFTISRDYAKNTVYLQMNSLKPEDTAVYYCAVSYSYRYYYWGQGTQVTVSS,high polyreactivity
11,QVQLVESGGGVVQAGGSLRLSCAASGFTPGNVMGGYRQAPGKERELVAAISWTGDSTYYAASVKGRFTISRDNAKNTVYLQMNSLKPEDTAVYYCAADGVPGRALDYEYWGQGTQVTVSS,high polyreactivity
12,QVQLVESGGGLVQAGGSLRLSCAASGFIFSRNAMGWYRQAPGKVRELGAAISRVGSTYYADSVKGRFTISRDNAKNTVYLQMYSLKREDTAVYYCARAWGNGGKSIFDYWGQGTQVTVSS,high polyreactivity
13,QVHLVESGGGLVQAGGSLRLSCAASGRLLVLNDMGWYRPEPGKVMELVADITSGGSTYYADSVKGRFTISRDNAKKTDYLQMNSLKPEDPAVYYCAADWNTYPDYQQSYFVSYEYNYWGQGTQVTVSS,low polyreactivity
14,QVQLVESGGGLVQAGGSLRLSCAASGRTFWSNAMGWYRQAPGKERELVADITLSGGRTYYADSVKGRFTISRDNAKNTVYLHMNILKPEDTAVYYCAASATPSGVGMDYWGQGTQVTVSS,low polyreactivity
15,QVQLVESGGGLVQAGGSLRLSCAASGSIFGVYTMGWYRQAPGKERELVAAISRNGGSTYYEDSVKGRFTISRDNAKNTVYLQMNSLKPEDTAVYYCATSTSRRYGSRHNYWGQGTQVTVSS,high polyreactivity
16,QVQLVESGGGLVQAGGSLRLSCAASGFTFRIYAMGSYRQAPGKERELVAAISWAGGSTFYADSVKGRFTISRDNAKNTVYLQMNSLKPEDTAVYYCAADTAFHYDYWGQGTQVTVSS,low polyreactivity
17,QVQLVESGGGLVQAGGSLRLICAASGRTFKQYAMGWSRQAPGTERELVAAITSSGGSTYYADSVKGRFTISRDNAKNTVYLQMNSLKPEDTAVYYCAAATRGSGRRYDYWGQGTQVTVSS,high polyreactivity
18,QVQLVESGGGLVQARGSLRLSCAASGFIFGYYAKGWYRQAPGKERELVAAISPSGGRTYYADSVKGRFTISRDNAKNTVYLQMNILKPEDTAVYYCAAEYAYSLDPVEDYWGQGTLVTVSS,high polyreactivity
19,QVQVVESGGGLVQAGGSLRLSCAASGSTFPGNAMGWYRQAPGKERDLVAAITSTGTTYYADSVKGRFTISRDNAKNTVYLQMNSLKPEDTAVYYWNADPSPDPSTFDYWGQGTLVTVSS,low polyreactivity
20,QVQLVESGGGLVQAGGSLRLSCAASGSIFWLYAMGWYRQAPGKERELVAAISWSGTSTNYADSVKGRFTISRDNAKNTVYLQMNSLKPEDTAVYYCAAKWHVRGRGARYRYDYDYWGQGTQVTVSS,low polyreactivity
